From article PMC5928098, “Association of BrERF72 with methyl jasmonate-induced leaf senescence of Chinese flowering cabbage through activating JA biosynthesis-related genes”
Positions count from the first letter of the chain named.

Legend:
GST-BrERF72 [1] = biological target: T1, GST-BrERF72 (Brassica (Chinese flowering cabbage), UniProt M4CBR0 1-245); assay: EMSA; LightShift Chemiluminescent EMSA kit, 6% native PAGE; buffer, salt, pH and temperature not stated; conditions: protein: recombinant, tags: N-terminal GST (pGEX-4T-1), label: 5' biotin
T1 sequence (M4CBR0 entry or part of it): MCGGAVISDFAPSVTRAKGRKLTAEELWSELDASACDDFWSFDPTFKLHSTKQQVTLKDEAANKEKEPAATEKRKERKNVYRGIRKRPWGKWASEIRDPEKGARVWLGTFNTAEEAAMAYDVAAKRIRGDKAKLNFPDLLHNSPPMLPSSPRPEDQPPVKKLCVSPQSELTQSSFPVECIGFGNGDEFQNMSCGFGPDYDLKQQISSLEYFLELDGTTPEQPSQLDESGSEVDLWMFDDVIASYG

GST-BrERF72 [2] = biological target: T1, GST-BrERF72; assay: competition; unlabeled mutant vs labeled BrLOX4 probe; LightShift Chemiluminescent EMSA kit, 6% native PAGE; buffer, salt, pH and temperature not stated; conditions: protein: recombinant; tags: N-terminal GST (pGEX-4T-1); blunt
GST-BrERF72 [3] = biological target: T1, GST-BrERF72; assay: competition; unlabeled mutant vs labeled BrAOC3 probe; LightShift Chemiluminescent EMSA kit, 6% native PAGE; buffer, salt, pH and temperature not stated; conditions: protein: recombinant; tags: N-terminal GST (pGEX-4T-1); blunt
GST-BrERF72 [4] = biological target: T1, GST-BrERF72; assay: competition; unlabeled mutant vs labeled BrOPR3 probe; LightShift Chemiluminescent EMSA kit, 6% native PAGE; buffer, salt, pH and temperature not stated; conditions: protein: recombinant; tags: N-terminal GST (pGEX-4T-1); blunt

B1: GCC-box probe (dsDNA)
DNA 1: CATAAGAGCCGCCACTCATAAGAGCCGCCACT
DNA 2: AGTGGCGGCTCTTATGAGTGGCGGCTCTTATG
binding result (GST-BrERF72 [1]): binds

B2: BrLOX4 promoter probe (dsDNA)
DNA 1: ACATGTTATATCCGCGCGAAGCGCGGACACCGACTCTAGTTATCAGTAAAAATAAATG
DNA 2: CATTTATTTTTACTGATAACTAGAGTCGGTGTCCGCGCTTCGCGCGGATATAACATGT
binding result (GST-BrERF72 [1]; blunt): binds

B3: mBrLOX4 promoter probe (dsDNA)
DNA 1: B2 DNA 1 with C30A, C31A, G32A, C34A
DNA 2: B2 DNA 2 with G25T, C27T, G28T, G29T
binding result (GST-BrERF72 [2]): no binding

B4: BrAOC3 promoter probe (dsDNA)
DNA 1: ATGTCTTCACTAAAAACACTATACCGACCAGAGTTTTGTAGACATAAATTACGAA
DNA 2: TTCGTAATTTATGTCTACAAAACTCTGGTCGGTATAGTGTTTTTAGTGAAGACAT
binding result (GST-BrERF72 [1]; blunt): binds

B5: mBrAOC3 promoter probe (dsDNA)
DNA 1: B4 DNA 1 with C24A, C25A, G26A, C28A
DNA 2: B4 DNA 2 with G28T, C30T, G31T, G32T
binding result (GST-BrERF72 [3]): no binding

B6: BrOPR3 promoter probe (dsDNA)
DNA 1: CCTGAACCAATCATAGCCTGGCGGCTAAGTCTTACAGTTGA
DNA 2: TCAACTGTAAGACTTAGCCGCCAGGCTATGATTGGTTCAGG
binding result (GST-BrERF72 [1]; blunt): binds

B7: DRE/CRT probe (dsDNA)
DNA 1: ATTTCATGGCCGACCTGCTTTCATGGCCGACCTGCTTT
DNA 2: AAAGCAGGTCGGCCATGAAAGCAGGTCGGCCATGAAAT
binding result (GST-BrERF72 [1]): binds

B8: mBrOPR3 promoter probe (dsDNA)
DNA 1: CCTGAACCAATCATAGCCTAAAAAATAAGTCTTACAGTTGA
DNA 2: TCAACTGTAAGACTTATTTTTTAGGCTATGATTGGTTCAGG
binding result (GST-BrERF72 [4]): no binding
